Here are results for 3 molecules from article PMC5823669, “Multi-chaperone function modulation and association with cytoskeletal proteins are key features of the function of AIP in the pituitary gland” (Oncotarget, 2018).

For assay [1], the target named is T1, GST-tagged human AIP p.R304* (human, UniProt O00170 1-303).
T1 construct: AIP, human, UniProt O00170; natural nonsense variant c.910C>T, p.R304*: stop codon in place of R304, truncated protein ending at residue 303; The C-terminal limit 303 follows from the printed p.R304*; also called GST-AIP R304*; not shown: GST, N-terminal, kept
T1 sequence (looked up): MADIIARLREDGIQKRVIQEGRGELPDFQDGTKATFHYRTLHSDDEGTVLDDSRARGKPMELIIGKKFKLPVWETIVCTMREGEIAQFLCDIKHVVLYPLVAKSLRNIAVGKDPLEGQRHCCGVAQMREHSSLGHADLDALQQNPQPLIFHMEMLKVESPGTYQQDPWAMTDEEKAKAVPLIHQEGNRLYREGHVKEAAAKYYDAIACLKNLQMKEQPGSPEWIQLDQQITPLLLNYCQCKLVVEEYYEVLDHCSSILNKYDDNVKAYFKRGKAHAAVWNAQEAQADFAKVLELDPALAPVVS
The experiment in a line: affinity purification with mass spectrometry; GST pull-down: 10 ug of purified GST-AIP bait (WT or variant) against 2 mg total protein of GH3 cell lysate; eluates of four experiments pooled; TMTsixplex labelling, Orbitrap MS; peptide intensities minus the GST control, variants given as fold of the WT experiment (WT = 1). The settings on record: one partner purified.

Assay [2] has as its target T2, GST-tagged human AIP p.A299V (human, UniProt O00170 1-330, p.A299V).
T2 construct: AIP, human, UniProt O00170; also called GST-AIP A299V; not shown: GST, N-terminal, kept
T2 sequence (looked up): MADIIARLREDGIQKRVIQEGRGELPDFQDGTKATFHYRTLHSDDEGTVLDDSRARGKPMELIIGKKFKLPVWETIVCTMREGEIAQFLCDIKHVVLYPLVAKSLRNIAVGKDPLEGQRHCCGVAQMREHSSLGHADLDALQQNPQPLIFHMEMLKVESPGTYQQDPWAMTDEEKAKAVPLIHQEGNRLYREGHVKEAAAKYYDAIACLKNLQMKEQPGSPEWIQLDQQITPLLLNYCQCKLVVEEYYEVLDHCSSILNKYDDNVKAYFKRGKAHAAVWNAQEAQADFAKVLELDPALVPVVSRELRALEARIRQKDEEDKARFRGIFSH
Described as above. The following applies: one partner purified.

B1: TBB2A_RAT Tubulin beta-2A chain (Tubb2a) (natural protein, R. norvegicus (endogenous in GH3), UniProt P85108 1-445, looked up)
chain: MREIVHIQAGQCGNQIGAKFWEVISDEHGIDPTGSYHGDSDLQLERINVYYNEAAGNKYVPRAILVDLEPGTMDSVRSGPFGQIFRPDNFVFGQSGAGNNWAKGHYTEGAELVDSVLDVVRKESESCDCLQGFQLTHSLGGGTGSGMGTLLISKIREEYPDRIMNTFSVMPSPKVSDTVVEPYNATLSVHQLVENTDETYSIDNEALYDICFRTLKLTTPTYGDLNHLVSATMSGVTTCLRFPGQLNADLRKLAVNMVPFPRLHFFMPGFAPLTSRGSQQYRALTVPELTQQMFDSKNMMAACDPRHGRYLTVAAIFRGRMSMKEVDEQMLNVQNKNSSYFVEWIPNNVKTAVCDIPPRGLKMSATFIGNSTAIQELFKRISEQFTAMFRRKAFLHWYTGEGMDEMEFTEAESNMNDLVSEYQQYQDATADEQGEFEEEEGEDEA
notes: Tubulin beta-2A chain, rat, UniProt P85108; source: endogenous, GH3 cell lysate
Consider B1, for which the “normalized intensity value (fold of the WT AIP pull-down)” value in assay [1] is 0.3 fold of WT.

B2: TBB5_RAT Tubulin beta-5 chain (Tubb5) (natural protein, R. norvegicus (endogenous in GH3), UniProt P69897 1-444, looked up)
chain: MREIVHIQAGQCGNQIGAKFWEVISDEHGIDPTGTYHGDSDLQLDRISVYYNEATGGKYVPRAILVDLEPGTMDSVRSGPFGQIFRPDNFVFGQSGAGNNWAKGHYTEGAELVDSVLDVVRKEAESCDCLQGFQLTHSLGGGTGSGMGTLLISKIREEYPDRIMNTFSVVPSPKVSDTVVEPYNATLSVHQLVENTDETYCIDNEALYDICFRTLKLTTPTYGDLNHLVSATMSGVTTCLRFPGQLNADLRKLAVNMVPFPRLHFFMPGFAPLTSRGSQQYRALTVPELTQQVFDAKNMMAACDPRHGRYLTVAAVFRGRMSMKEVDEQMLNVQNKNSSYFVEWIPNNVKTAVCDIPPRGLKMAVTFIGNSTAIQELFKRISEQFTAMFRRKAFLHWYTGEGMDEMEFTEAESNMNDLVSEYQQYQDATAEEEEDFGEEAEEEA
notes: Tubulin beta-5 chain, rat, UniProt P69897; also called tubulin beta chain; source: endogenous, GH3 cell lysate
On to B2, for which the “normalized intensity value (fold of the WT AIP pull-down)” value in assay [1] is 0.2 fold of WT.

B3: NDKA_RAT Nucleoside diphosphate kinase A (Nme1) (natural protein, R. norvegicus (endogenous in GH3), UniProt Q05982 1-152, looked up)
chain: MANSERTFIAIKPDGVQRGLVGEIIKRFEQKGFRLVGLKFIQASEDLLKEHYIDLKDRPFFSGLVKYMHSGPVVAMVWEGLNVVKTGRVMLGETNPADSKPGTIRGDFCIQVGRNIIHGSDSVESAEKEISLWFQPEELVDYKSCAQNWIYE
notes: Nucleoside diphosphate kinase A, rat, UniProt Q05982; also called NME/NM23 nucleoside diphosphate kinase 1; source: endogenous, GH3 cell lysate
For B3, in assay [2], the “normalized intensity value (fold of the WT AIP pull-down)” value is 0.2 fold of WT.
